Experimental data taken from patent publication US9212226B2, “Amino acid sequences directed against CXCR4 and other GPCRs and compounds comprising the same” (Ablynx N.V., priority 2008, dated 2015).

Biological target: CXCR4 (Homo sapiens, UniProt P61073)
Experiment: [125I]-CXCL12 competition binding on membranes from HEK293T cells transiently expressing CXCR4
Conditions: for affinity to CXCR4: in words; for displacement of specifically bound [125I]-CXCL12: purified ligands, highest Nanobody test concentration 0.5 μM; for Binding (binding efficiency, competition binding with [125I]-CXCL12): screening of Nanobody clone pools
Protocol: HEK293T cells were maintained at 37° C. in a humidified 5% CO2, 95% air atmosphere in Dulbecco's modified Eagle's medium (DMEM) containing 2 mM L-glutamine, 50 IU/ml penicillin, 50 μg/ml streptomycin, and 10% (v/v) fetal calf serum. Jurkat cells were cultured in a humidified 5% CO2, 95% air atmosphere in a 1:1 mixture of Dulbecco's modified Eagle's medium (DMEM) and Ham's F12 medium containing 2 mM L-glutamine, 50 IU/ml penicillin, 50 μg/ml streptomycin, and 10% (v/v) fetal calf serum. […] [^125 I]-Labelling— Radiolabeling of Nanobodies with ^125I was performed using the Iodo-gen method (Pierce, Rockford, Ill.) according to the manufacturer's protocol. ^125I-labeled Nanobodies was separated from free iodine (>99%) using a Sephadex G-25 gel filtration column (Amersham Biosciences, Piscataway, N.J.). […] Competition Binding Assays— Membranes from HEK293T cells transiently expressing CXCR3 or CXCR4 were prepared 48 h after transfection as follows. Cells were washed and scraped from the cell culture dishes with ice-cold PBS containing 1 mm EDTA. The scraped cells were pelleted at 1500×g for 10 min at 4° C. The pellet was washed and then resuspended in ice-cold membrane buffer (15 mM Tris, pH 7.5, 1 mM EGTA, 0.3 mM EDTA, and 2 mM MgCl2). The cell suspension was homogenized by 10 strokes at 1200 rpm using a Teflon-glass homogenizer and rotor and further subjected to three freeze-thaw cycles using liquid nitrogen. Membranes were separated by centrifugation at 40,000 g for 25 min at 4° C. The membrane pellet was washed and resuspended in ice-cold Tris-sucrose buffer (20 mM Tris, pH 7.4, and 250 mM sucrose) and frozen in liquid nitrogen. The total protein was determined using a Bradford assay (Bio-Rad). […] Membranes were then harvested over polyethylenimine (0.5%)-treated Whatman GF/C filter plates and washed three times with ice cold binding buffer containing 500 mM NaCl. Plates were counted by liquid scintillation. Inositol Phosphate Accumulation Assay— 24 hours post transfection with pcDNA3.1-CXCR4 and pcDNA1-HA-mG {alpha} qi5 (see Verzijl et al, 2008 supra), 250.000 cells were seeded into 24-wells plates and labelled overnight using inositol-free minimal essential medium supplemented with 1 μCi myo-[2-^3H]-inositol. The next day, the cells were washed once to remove not incorporated myo-[2-^3H]-inositol. […] In agonist experiments, the cells were directly stimulated with test compounds and LiCl (10 mM) in assay buffer for 2 h at 37° C. The stimulation was stopped by aspirating the stimulation medium and adding ice-cold 10 mM formic acid. The accumulated inositol phosphates were isolated by anion exchange chromatography and counted by liquid scintillation. CRE Reporter Gene Assay— HEK239T cells were transfected with pCRE/β-galactosidase (Chen W, Shields T S, Stork P J S, Cone R D (1995) Anal Biochem 226:349-354) and plasmids (pcDEF3 or pcDNA3.1) encoding the indicated receptors. 40,000 transfected cells per well were seeded into 96 well plates and grown in DMEM supplemented with 10% fetal calf serum. The medium was replaced 32 h after transfection by serum-free DMEM supplemented with 0.5% bovine serum albumin and ligands as indicated. […] The β-galactosidase activity was determined by the measurement of absorption at 420 nm with a PowerwaveX340 plate reader (Bio-Tek Instruments Inc., Winooski, Vt.) after incubation with the assay buffer when the OD420 value for forskolin (3 μM) controls reached 0.4-0.6. Chemotaxis Assay— The chemotactic responsiveness of Jurkat 3D cells was assessed using ChemoTx™ plates (Receptor Technologies Ltd., Oxon, UK) in which a upper cell-containing compartment is separated from a lower chemoattractant-containing compartment by a polyvinylpyrollidone-free polycarbonate filter with 5-μm pores. Cells were harvested, washed and resuspended in RPMI containing 0.5% bovine serum albumin and then loaded to 150,000 cells per well in a volume of 25 μl into the upper compartment of the chemotaxis chamber.

[1] = membranes from HEK293T cells transiently expressing CXCR4
[2] = membranes from HEK293T cells transiently expressing CXCR4, mean ± S.E.M.

CXCR4, sequence (P61073 whole entry): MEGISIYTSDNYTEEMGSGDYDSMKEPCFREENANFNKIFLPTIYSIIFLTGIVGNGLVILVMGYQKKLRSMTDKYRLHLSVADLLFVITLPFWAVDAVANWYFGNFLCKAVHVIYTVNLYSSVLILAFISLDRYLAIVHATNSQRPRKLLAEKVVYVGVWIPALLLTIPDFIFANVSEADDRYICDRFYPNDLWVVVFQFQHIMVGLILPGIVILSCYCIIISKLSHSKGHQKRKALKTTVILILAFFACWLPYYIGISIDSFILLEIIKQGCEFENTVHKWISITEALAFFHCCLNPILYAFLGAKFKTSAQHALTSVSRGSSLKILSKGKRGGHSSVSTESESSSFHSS

Row | affinity to CXCR4 | displacement of specifically bound [125I]-CXCL12 | Binding (binding efficiency, competition binding with [125I]-CXCL12) [1] | Displacem. (%) of [125I]-CXCL12 (maximal displacement) [2] [%] | pKi, [125I]-CXCL12 [2] | Molecule
1 | low nanomolar range | fully displace | ++ (++ = 70-100%) | – | – | 238D4: Nanobody (VHH) raised against human CXCR4, SEQ ID NO: 239 (protein, Nanobody, Nanobody constructs or fragments thereof) VHH: EVQLMESGGGLVQAGGSLRLSCAASGRTFNNYAMGWFRRAPGKEREFVAAITRSGVRSGVSAIYGDSVKDRFTISRDNAKNTLYLQMNSLKPEDTAVYTCAASAIGSGALRRFEYDYSGQGTQVTVSS
2 | low nanomolar range | fully displace | ++ (++ = 70-100%) | 93 ± 5 | 8.01 ± 0.12 | 238D2: Nanobody (VHH) raised against human CXCR4, SEQ ID NO: 238 (protein, Nanobody, Nanobody constructs or fragments thereof) VHH: EVQLVESGGGLVQTGGSLRLSCAASGFTFSSYAMSWVRQAPGKGLEWVSGIKSSGDSTRYAGSVKGRFTISRDNAKNMLYLQMYSLKPEDTAVYYCAKSRVSRTGLYTYDNRGQGTQVTVSS
